T1: endogenous human DLL3 on NCI-H82 cells (human, UniProt Q9NYJ7 27-618)
T1 sequence (looked up): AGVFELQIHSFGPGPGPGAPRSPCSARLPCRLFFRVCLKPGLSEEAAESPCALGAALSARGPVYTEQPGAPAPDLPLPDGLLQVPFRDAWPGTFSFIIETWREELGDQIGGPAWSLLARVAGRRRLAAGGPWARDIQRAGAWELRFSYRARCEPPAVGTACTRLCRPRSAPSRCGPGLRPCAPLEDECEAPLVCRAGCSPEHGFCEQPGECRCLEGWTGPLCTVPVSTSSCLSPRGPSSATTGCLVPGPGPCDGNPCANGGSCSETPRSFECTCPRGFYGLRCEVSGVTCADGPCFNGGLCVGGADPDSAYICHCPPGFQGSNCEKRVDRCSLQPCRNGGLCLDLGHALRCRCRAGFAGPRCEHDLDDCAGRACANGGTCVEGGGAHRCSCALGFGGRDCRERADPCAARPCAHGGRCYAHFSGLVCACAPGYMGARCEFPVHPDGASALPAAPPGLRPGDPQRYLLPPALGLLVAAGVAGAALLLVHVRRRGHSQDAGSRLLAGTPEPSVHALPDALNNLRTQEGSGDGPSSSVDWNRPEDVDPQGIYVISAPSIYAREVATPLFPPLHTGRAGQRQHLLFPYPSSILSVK

T2: DLL1 (UniProt O00548 18-545, limits assumed)
T2 sequence (looked up): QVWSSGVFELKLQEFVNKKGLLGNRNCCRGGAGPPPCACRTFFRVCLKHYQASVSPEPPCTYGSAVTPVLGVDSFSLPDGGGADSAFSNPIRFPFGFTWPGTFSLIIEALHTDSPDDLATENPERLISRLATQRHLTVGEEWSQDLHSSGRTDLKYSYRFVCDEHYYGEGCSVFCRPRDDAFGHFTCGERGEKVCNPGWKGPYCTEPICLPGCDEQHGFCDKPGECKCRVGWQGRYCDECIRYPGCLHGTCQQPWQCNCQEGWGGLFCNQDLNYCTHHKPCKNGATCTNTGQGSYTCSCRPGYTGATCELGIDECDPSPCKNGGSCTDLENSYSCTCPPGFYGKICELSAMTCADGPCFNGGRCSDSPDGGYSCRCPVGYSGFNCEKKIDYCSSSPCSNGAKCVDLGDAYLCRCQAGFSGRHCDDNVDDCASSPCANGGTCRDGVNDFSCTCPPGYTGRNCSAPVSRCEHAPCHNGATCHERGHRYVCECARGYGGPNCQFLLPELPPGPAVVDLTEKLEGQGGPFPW

T3: full-length human DLL3 on transfected HEK293 cells (human, UniProt Q9NYJ7 27-618)
T3 construct: also called 293 hDLL3
T3 sequence: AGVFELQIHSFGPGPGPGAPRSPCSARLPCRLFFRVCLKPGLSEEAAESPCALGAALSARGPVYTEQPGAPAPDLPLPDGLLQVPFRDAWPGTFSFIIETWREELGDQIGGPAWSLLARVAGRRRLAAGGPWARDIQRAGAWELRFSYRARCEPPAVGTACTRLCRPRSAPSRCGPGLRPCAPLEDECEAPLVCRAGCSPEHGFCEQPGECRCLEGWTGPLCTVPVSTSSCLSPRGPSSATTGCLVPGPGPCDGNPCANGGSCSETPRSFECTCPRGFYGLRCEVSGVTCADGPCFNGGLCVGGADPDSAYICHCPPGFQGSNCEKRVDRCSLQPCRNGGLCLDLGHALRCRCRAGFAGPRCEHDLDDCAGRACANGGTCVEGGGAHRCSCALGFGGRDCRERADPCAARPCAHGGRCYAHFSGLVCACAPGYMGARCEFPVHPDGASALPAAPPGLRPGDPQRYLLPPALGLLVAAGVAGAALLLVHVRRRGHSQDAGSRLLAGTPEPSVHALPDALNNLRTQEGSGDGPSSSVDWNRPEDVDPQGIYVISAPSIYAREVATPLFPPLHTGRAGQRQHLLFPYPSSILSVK

T4: full-length mouse DLL3 on transfected HEK293 cells (mouse, UniProt O88516 33-584)
T4 construct: also called 293 mDLL3
T4 sequence: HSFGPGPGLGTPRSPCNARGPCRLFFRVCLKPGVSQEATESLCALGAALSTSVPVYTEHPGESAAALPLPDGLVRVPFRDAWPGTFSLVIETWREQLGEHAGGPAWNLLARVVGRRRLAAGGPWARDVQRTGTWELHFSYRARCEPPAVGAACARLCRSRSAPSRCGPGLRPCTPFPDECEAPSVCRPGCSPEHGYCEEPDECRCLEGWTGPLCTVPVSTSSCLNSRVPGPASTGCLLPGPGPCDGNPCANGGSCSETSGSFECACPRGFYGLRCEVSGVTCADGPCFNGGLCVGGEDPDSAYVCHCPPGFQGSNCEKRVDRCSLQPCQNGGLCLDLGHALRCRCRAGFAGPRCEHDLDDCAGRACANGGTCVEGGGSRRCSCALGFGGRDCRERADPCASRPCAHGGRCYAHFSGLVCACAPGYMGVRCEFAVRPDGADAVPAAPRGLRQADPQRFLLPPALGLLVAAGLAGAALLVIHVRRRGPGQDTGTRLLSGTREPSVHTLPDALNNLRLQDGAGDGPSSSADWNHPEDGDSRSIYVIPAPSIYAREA

T5: full-length cynomologus DLL3 on transfected HEK293 cells (cynomologus, UniProt A0A2K5WSR1 27-585)
T5 construct: also called 293 cyno DLL3
T5 sequence: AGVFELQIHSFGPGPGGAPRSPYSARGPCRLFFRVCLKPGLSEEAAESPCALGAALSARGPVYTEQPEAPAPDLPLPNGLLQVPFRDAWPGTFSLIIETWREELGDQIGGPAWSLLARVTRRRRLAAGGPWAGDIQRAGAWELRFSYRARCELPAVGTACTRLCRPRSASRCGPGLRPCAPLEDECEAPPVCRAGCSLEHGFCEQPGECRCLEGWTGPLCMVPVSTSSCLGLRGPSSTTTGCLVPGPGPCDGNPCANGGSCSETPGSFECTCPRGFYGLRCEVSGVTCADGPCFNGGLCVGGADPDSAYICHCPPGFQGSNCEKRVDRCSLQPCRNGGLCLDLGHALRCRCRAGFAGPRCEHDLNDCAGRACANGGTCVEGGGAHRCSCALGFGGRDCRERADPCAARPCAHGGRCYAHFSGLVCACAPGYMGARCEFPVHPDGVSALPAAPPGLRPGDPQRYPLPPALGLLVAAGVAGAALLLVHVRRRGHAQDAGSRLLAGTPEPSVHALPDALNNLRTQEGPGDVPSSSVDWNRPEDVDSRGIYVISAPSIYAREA


Assays:
[1] = target: T1, endogenous human DLL3 on NCI-H82 cells; experiment: cell-based or functional assay
[2] = target: T1, endogenous human DLL3 on NCI-H82 cells; experiment: cell-based or functional assay; remark: listed apart in the source
[3] = target: T1, endogenous human DLL3 on NCI-H82 cells; experiment: cell-based or functional assay; remark: listed apart in the source
DLL1 = target: T2, DLL1; experiment: FIG. 7; assay not described
DLL4 = DLL4 (UniProt Q9NR61 27-524, limits assumed); experiment: FIG. 7; assay not described
[4] = target: T1, endogenous human DLL3 on NCI-H82 cells; experiment: flow cytometry, 10 µg/ml antibody on NCI-H82 cells (endogenous DLL3)
Protocol: (§1) The four monoclonal antibodies (6-G23-F, 2-C8-A, 7-I1-B and 10-O18-A) were tested for their ability to bind to mouse and cynomologus DLL3 as well as endogenous human DLL3 by flow cytometry. For this purpose, HEK293 cells were transfected with plasmid DNA encoding full-length human, mouse or cynomologus DLL3 and used in the experiment. Briefly 10⁶ transfected HEK293 cells or NCI-H82 primary cells were added in FACS buffer PBS 0.5% BSA to the wells of a 96 well U bottom plate and purified monoclonal added to 10 μg/ml. After 30 minutes incubation at 4° C. the cells were washed 3 times in FACS buffer and incubated with a PE labelled F(ab)2 anti-mouse IgG H and L 2nd stage. After another 30 minutes incubation at 4° C. the cells were washed three times in FACS buffer and analyzed on the flow cytometer. Data are presented at the ratio of the Mean Fluorescent Intensity for the monoclonal divided by the background staining with the 2nd stage. As shown in the Table below, all of the monoclonal antibodies cross reacted with cynomologus DLL3 and detected endogenous DLL3 on NCI H82 cells but only 6-G23-F and 7-I1-B bound to mouse DLL3.

[5] = target: T3, full-length human DLL3 on transfected …; experiment: flow cytometry, 10 µg/ml antibody on HEK293 cells transfected with full-length human DLL3
Protocol: as §1

[6] = target: T4, full-length mouse DLL3 on transfected …; experiment: flow cytometry, 10 µg/ml antibody on HEK293 cells transfected with full-length mouse DLL3
Protocol: as §1

[7] = target: T5, full-length cynomologus DLL3 on …; experiment: flow cytometry, 10 µg/ml antibody on HEK293 cells transfected with full-length cynomologus DLL3
Protocol: as §1

DLL4, sequence (Q9NR61 27-524 limits assumed): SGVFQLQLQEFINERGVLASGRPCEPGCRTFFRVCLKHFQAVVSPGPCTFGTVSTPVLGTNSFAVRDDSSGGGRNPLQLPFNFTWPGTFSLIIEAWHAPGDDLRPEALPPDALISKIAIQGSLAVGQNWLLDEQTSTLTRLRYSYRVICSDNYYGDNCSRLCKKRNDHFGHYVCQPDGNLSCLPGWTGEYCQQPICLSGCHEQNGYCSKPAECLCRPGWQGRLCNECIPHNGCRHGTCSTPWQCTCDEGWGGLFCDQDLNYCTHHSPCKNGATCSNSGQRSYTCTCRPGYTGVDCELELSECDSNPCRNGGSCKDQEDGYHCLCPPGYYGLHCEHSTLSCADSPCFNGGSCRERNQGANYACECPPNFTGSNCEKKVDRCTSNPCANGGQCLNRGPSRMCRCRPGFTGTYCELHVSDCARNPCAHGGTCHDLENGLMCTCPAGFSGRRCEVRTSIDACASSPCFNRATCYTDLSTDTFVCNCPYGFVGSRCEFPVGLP

Binder	MFI Ratio (4° C. / 37° C. staining, 4/37 internalization assay on NCI-H82 cells) [1] [ratio]	Dy light Dy658 Fluorescence (% of the Control Reference Monoclonal Antibody), quenching internalization assay on NCI-H82 cells [2]	FAB ZAP % SC16 Max Killing (saporin Fab ZAP cytotoxicity on NCI-H82 cells) [3] [% SC16 Max Killing]	binding result (DLL1)	binding result (DLL4)	ratio of the Mean Fluorescent Intensity for the monoclonal divided by the background staining with the 2nd stage [4] [ratio]	ratio of the Mean Fluorescent Intensity for the monoclonal divided by the background staining with the 2nd stage [5] [ratio]	ratio of the Mean Fluorescent Intensity for the monoclonal divided by the background staining with the 2nd stage [6] [ratio]	ratio of the Mean Fluorescent Intensity for the monoclonal divided by the background staining with the 2nd stage [7] [ratio]
2-C8-A (antibody, V domains shown, Purified hybridoma monoclonal from Ablexis AlivaMAb Kappa mice; the antibody was captured on anti-mouse Fc sensors and detected with anti-mouse IgG / anti-mouse IgG1 reagents; also called 2-C8-A (10 µg/ml)) VH: EVQLVESGGGLVQPGGSQRLSCAASGFTFSSYWMNWVRQAPGKGLEWVANIKEDGSEKYYVDSVKGRFTISRDNAKNSLYLQMNSLRAEDTAVYYCARDPGWAPFDYWGQGTLVTVSS VL: DIQMSQSPSSLSASVGDRVTITCRASQGISNYLAWFQQKPGKAPKSLIYAASSLQSGVPSKFSGSGSGTDFTLAISSLQPEDFATYYCQQYNSFPYTFGQGTTLEIK	1.76	62.9 % of the Control Reference Monoclonal Antibody	89	no binding	no binding	11.9	7.71	1.5	15
7-I1-B (antibody, V domains shown, Purified hybridoma monoclonal from Ablexis AlivaMAb Kappa mice; the antibody was captured on anti-mouse Fc sensors and detected with anti-mouse IgG / anti-mouse IgG1 reagents; also called 7-I1-B (10 µg/ml)) VH: EVQLVESGGGLVKPGGSLRLSCAASGFTFSNTWMSWVRQAPGKGLEWVGRIKSKSDGGTTDYAAPVKGRFTISRDDSKNTLYLQMNSLKTEDTAVYYCTQYYWNSFDYWGQGTLVTVSS VL: not shown	1.68	70.1 % of the Control Reference Monoclonal Antibody	97	no binding		19.2	9.74	4.7	18.7
10-O18-A (antibody, V domains shown, Purified hybridoma monoclonal from Ablexis AlivaMAb Kappa mice; the antibody was captured on anti-mouse Fc sensors and detected with anti-mouse IgG / anti-mouse IgG1 reagents; also called 10-018-A; 10-O18-A (10 µg/ml)) VH: QVQLQESGPGLVKPSETLSLTCTVSGGSINSYYWSWIRQPPGKGLEWIGYIFYSGITNYNPSLKSRVTISLDTSKNQFSLKLSSVTAADTAVYYCARIGVAGFYFDYWGQGTLVTVSS VL: not shown	1.56			no binding	no binding	9.4	4.74	0.99	9.85
6-G23-F (antibody, V domains shown, Purified hybridoma monoclonal from Ablexis AlivaMAb Kappa mice (human immunoglobulin repertoire); the antibody was captured on anti-mouse Fc sensors and detected with anti-mouse IgG / anti-mouse IgG1 reagents; also called 6-G23-F (10 µg/ml)) VH: QVQLVQSGAEVKKPGASVKVSCKASGYTFTSYYIHWVRQAPGQGLEWMGIIDPSDGSTNYAQKFQGRVTMTRDTSTSTVYMELSSLRSEDTAVYYCARDREYNYYGLDVWGQGTTVTVSS VL: not shown	1.67	76.5 % of the Control Reference Monoclonal Antibody	94	no binding	no binding	11.1	6.33	3.97	13.1
